Test [1] addresses T1, cynomolgus monkey OSM (cOSM) (cynomolgus monkey, UniProt P13725 26-221 (human entry), limits assumed).
T1 construct: also called cynomolgus OSM
T1 chain: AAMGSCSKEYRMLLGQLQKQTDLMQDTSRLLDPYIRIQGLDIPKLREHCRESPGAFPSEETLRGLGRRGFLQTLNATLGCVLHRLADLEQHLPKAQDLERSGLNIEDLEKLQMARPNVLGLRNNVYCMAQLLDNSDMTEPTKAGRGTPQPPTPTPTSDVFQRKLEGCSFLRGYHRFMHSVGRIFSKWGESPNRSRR
Description: gp130 inhibition ELISA and KB cell assay. (In general: An ELISA detects its analyte on a solid surface through an enzyme-linked reagent.)

The target of test [2] is T1, cynomolgus monkey OSM (cOSM). Description: gp130 inhibition ELISA, cynomolgus OSM.
Test [3] has as its target T2, human Oncostatin M (hOSM) (human, UniProt P13725 26-221).
T2 construct: also called human OSM
T2 sequence: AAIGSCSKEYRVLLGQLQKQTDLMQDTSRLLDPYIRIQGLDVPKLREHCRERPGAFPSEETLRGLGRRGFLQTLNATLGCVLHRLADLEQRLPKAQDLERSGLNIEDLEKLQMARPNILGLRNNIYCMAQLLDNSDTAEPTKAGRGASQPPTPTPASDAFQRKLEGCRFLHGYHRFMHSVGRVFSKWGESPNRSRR
Description: gp130 ELISA, hOSM.

Test [4] deals with T3, glycosylated human OSM (hOSM) produced in CHO cells (human) (UniProt P13725).
T3 sequence (chain, glycosylated (CHO cell glycosylated)): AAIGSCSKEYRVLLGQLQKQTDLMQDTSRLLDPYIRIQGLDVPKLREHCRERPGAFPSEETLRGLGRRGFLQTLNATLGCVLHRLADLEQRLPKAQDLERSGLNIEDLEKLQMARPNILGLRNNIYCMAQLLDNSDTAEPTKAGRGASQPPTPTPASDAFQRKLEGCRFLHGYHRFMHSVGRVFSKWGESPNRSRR
Put plainly: competition ELISA: murine 10D3 titrated against 15E10-B3L2 (150 ng/ml, the competitor) on soluble glycosylated hOSM (50 ng/ml), capture by OM4-11.31, anti-human gamma chain detection.

The target of test [5] is T1, cynomolgus monkey OSM (cOSM). Put plainly: gp130 inhibition ELISA, purified antibodies.

Experimental findings from patent WO2005095457A2 (dated 2005) are described below.

B1: 15E10 chimaeric antibody (antibody, human IgG1, V domains shown)
VH: QVQLKQSGPGLVQPSQSLSITCTVSGFSLTNYGVHWVRQSPGKGLEWLGVIWRGGSTDYNAAFMSRLSITKDNSRSQVFFKMNSLQADDTAIYYCAKSPNSNFYWYFDVWGTGTTVTVSS
VL: QIVLTQSPTIMSASPGEKVTMTCSGSSSVSYMYWYQEKPGSSPRLLIEDTSNLASGVPARFSGSGSGTSYSLTISRMEAEDAATYYCQQWSSYPPTFGSGTKLEIK
notes: expressed in CHO; also called chimaeric 15E10; 15E10 chimaera
Take B1: the binding result in test [1] was “binds”.

B2: 15E10 murine antibody (antibody, mouse IgG2a, V domains shown)
VH: QVQLKQSGPGLVQPSQSLSITCTVSGFSLTNYGVHWVRQSPGKGLEWLGVIWRGGSTDYNAAFMSRLSITKDNSRSQVFFKMNSLQADDTAIYYCAKSPNSNFYWYFDVWGTGTTVTVSS
VL: QIVLTQSPTIMSASPGEKVTMTCSGSSSVSYMYWYQEKPGSSPRLLIEDTSNLASGVPARFSGSGSGTSYSLTISRMEAEDAATYYCQQWSSYPPTFGSGTKLEIK
notes: also called clone 15E10; parent murine 15E10
Consider B2, for which the binding result in test [2] is “binds”.

B3: 10D3 chimaeric antibody (antibody, human IgG1, V domains shown)
VH: EVQLQQSGPELVKPGASVKISCKASGYIFTDYNMDWVKQSHGKKLEWIGDINPNNGGTIDNQKFKDKATLTVDKSSSTAYMELRSLTSEDTAVYYCARGIYYYGSHYFDYWGQGTTLTVSS
VL: QIVLTQSPAIMSASPGEKVTMTCSATSSVSVMHWFQKKSGTSPKRWIYDTSKLASGVPTRFSGSGSGTSYSLTISSMEAEDTATYYCQQWSSNPLTFGSGTKLELK
notes: expressed in CHO; also called chimaeric 10D3; chimeric 10D3
Regarding B3, in test [3], the IC50 came out at 0.032 µg/mL. Also, the % inhibition of 15E10 at equimolarity (0.15μg/ml) in test [4] is 62.3%.

B4: humanised 15E10 antibody B3L2 (antibody, human IgG1, kappa, V domains shown)
VH: QVQLVESGGGVVQPGRSLRLSCAASGFSLTNYGVHWVRQAPGKGLEWVAVIWRGGSTDYNAAFMSRFTISKDNSKNTLYLQMNSLRAEDTAVYYCAKSPNSNFYWYFDVWGRGTLVTVSS
VL: EIVLTQSPATLSLSPGERATLSCSGSSSVSYMYWYQQKPGQAPRLLIEDTSNLASGIPARFSGSGSGTDYTLTISNLEPEDFAVYYCQQWSSYPPTFGQGTKLEIKR
notes: Human IgG1 wild type / kappa; purified from CHO; also called B3L2 wt; 15E10-B3L2
For the molecule B4, in test [5], the binding result is “binds”.

As usually defined, the IC50 is the concentration that inhibits the measured activity by half.
